{
  "source": "paper PMC7033585",
  "key": {"[1]": {"target": "CdiI536 (Escherichia coli) (UniProt Q0T964)", "details": "cited from earlier work"}, "[2]": {"target": "YeeF-CT^H581A, C-terminal toxic domain of YeeF (Ile527 to Gly669) with the point mutation H581A (Bacillus subtilis subsp. spizizenii str. W23) (UniProt O31506)", "assay": "AUC; sedimentation velocity of each protein alone at 8, 16 and 32 μM; 20 mM HEPES pH 7.5, 150 mM NaCl; 40,000 rpm, 25°C; c(s) fit with SEDFIT"}, "[3]": {"target": "YeeF-CT^H581A, point variant of the C-terminal toxic domain of YeeF (Bacillus subtilis subsp. spizizenii str. W23) (UniProt O31506)", "assay": "AUC; sedimentation velocity of each protein alone at 8, 16 and 32 μM; 20 mM HEPES pH 7.5, 150 mM NaCl; 40,000 rpm, 25°C; c(s) fit with SEDFIT"}, "[4]": {"target": "YeeF-CT^H581A, point variant of the C-terminal toxic domain of YeeF (Bacillus subtilis subsp. spizizenii str. W23) (UniProt O31506)", "assay": "ITC; YeeF-CT^(M) 10 μM in the cell, YezG 300 μM in the syringe; 25°C; 20 mM HEPES pH 7.5, 150 mM NaCl; two binding site model"}, "[5]": {"target": "YeeF-CT^H581A, point variant of the C-terminal toxic domain of YeeF (Bacillus subtilis subsp. spizizenii str. W23) (UniProt O31506)", "assay": "AUC; sedimentation velocity of mixtures: YeeF-CT fixed, increasing YezG, incubated at 4°C for 1 h beforehand; 20 mM HEPES pH 7.5, 150 mM NaCl; 25°C"}},
  "data": [
    {"substance": "CdiA-CT536 CT (from UniProt Q0T963)", "values": [
      {"measurement": "Kd", "setting": "[1]", "value": 26.4, "unit": "nM"}
    ]},
    {"substance": "YeeF-CT^H581A, C-terminal toxic domain of YeeF (Ile527 to Gly669) with the point mutation H581A (from UniProt O31506 527-669) (domain or fragment)", "values": [
      {"measurement": "stoichiometry N", "setting": "[2]", "value": 2}
    ]},
    {"substance": "YeeF-CT^H581A, point variant of the C-terminal toxic domain of YeeF (from UniProt O31506 527-669) (domain or fragment)", "values": [
      {"measurement": "stoichiometry N", "setting": "[3]", "value": 2}
    ]},
    {"substance": "YezG immunity protein (from UniProt C0H3X4 1-151) (natural protein)", "values": [
      {"measurement": "KD1 (first site of the two-site fit)", "setting": "[4]", "value": 29.4, "unit": "nM"},
      {"measurement": "KD2 (second site of the two-site fit)", "setting": "[4]", "value": 91.7, "unit": "nM"},
      {"measurement": "stoichiometry N (YezG monomers per YeeF-CT dimer)", "setting": "[5]", "value": 2}
    ]}
  ]
}
